Substrate in data set [1]: O=c1ccn([C@@H]2O[C@H](CO[P@@](=O)(O)O[P@@](=O)(O)O[C@H]3O[C@H](CO)[C@@H](O)[C@H](O)[C@H]3O)[C@@H](O)[C@H]2O)c(=O)[nH]1
The experiment in a line: anion-exchange HPLC of substrate consumption, Michaelis-Menten fit. Type of data set: biochemical, Trichomonas vaginalis. Conditions: 50 mM Tris/HCl, 150 mM NaCl, pH 7.0, 25 °C, no added NAD(P)+ or bivalent cations needed.

Substrate in data set [2]: Cc1cn([C@H]2C[C@H](O)[C@@H](COP(=O)(O)OP(=O)(O)O[C@H]3O[C@H](CO)[C@@H](O)[C@H](O)[C@H]3O)O2)c(=O)[nH]c1=O
Described as above. Type of data set: biochemical, Trichomonas vaginalis. Conditions: 50 mM Tris/HCl, 150 mM NaCl, pH 7.0, 25 °C, no added NAD(P)+ or bivalent cations needed.

Data set [3] concerns the molecule itself. The experiment in a line: SEC; size-exclusion chromatography of the purified protein on a TSK-gel 3000 column, as described in ref. 23; molecular weight calculated from the elution time.

As a reminder, the Km is the concentration of substrate that gives half-maximal velocity. The term kcat denotes the number of substrate molecules converted per active site and unit of time at saturation. Usually stoichiometry N stands for a count of units in the complex or per binding partner.

B1: UDP-D-glucose 4,6-dehydratase from Trichomonas vaginalis (TvUGD, TVAG_414560) (enzyme, Trichomonas vaginalis (strain G3), UniProt A2GEF2 1-348, looked up)
chain: MSEDYQPHVILLTGGAGFIGSHVCNHLVLKYPDVKIICLDVMDYCANLRNLEEIMNKPNFLFIKGSINNVELVSYIMKTHAVDTVMHFAAQSHVDRSFGNSLEFTHTNILGTHVLLECAKQNNIKRFIHVSTDEVYGEVLSGCAEEEKSILCPTNPYACSKAGAEFMCQAYIRSFNMPIIITRGNNVFGPKQFPEKVIPKFTLLLKAGHKCCIHGDGSALRNFLHTSDVVQAFDTILHKGKLHQIYNIGTDFEISVLEMTKKLIKVLNMPGKPEDWIEFVPDRAFNDSRYMINSSKLIALGWHANTDFDTLLKETVQWYLDHMDYWKDRDINTYLSPHPIAYAPKTAE
notes: calculated monomer mass 39 kDa; Residues of the vector may remain after protease cleavage; also called TvGD; UDP-D-Glc 4,6-dehydratase; source: E. coli BL21, GST-fusion from pGEX-6P1, purified on GSH-sepharose 4B, GST removed by precision protease cleavage
With B1, the values for the Km in data set [1] and in data set [2] were 21.3 ± 3.4 µM and 362.8 ± 73.4 µM, respectively. Further, the kcat in data set [1] is 0.39 ± 0.01 s⁻¹; in data set [2] it was 0.36 ± 0.03 s⁻¹. Also, the “stoichiometry N” value in data set [3] was 2.

These data come from article PMC9741107, “The L-Rhamnose Biosynthetic Pathway in Trichomonas vaginalis: Identification and Characterization of UDP-D-Glucose 4,6-dehydratase” (International Journal of Molecular Sciences, 2022).
